One may read the EC50 (read off the curve) as the concentration at which the effect is half-maximal.

The target in assay [1] is T1, CD40/Fc fusion protein (human, UniProt P25942 21-193).
T1 construct: extracellular domain; also called s CD40/Fc; C40/Fc
The assay can be described thus: BIAcore, CD40/Fc captured by goat anti-human IgG1 Fc; first experiment. Here is the method: (§1) This example illustrates the binding affinities of several different CD40-L constructs. Affinity experiments were conducted by biospecific interaction analysis (BIA) using a biosensor, an instrument that combines a biological recognition mechanism with a sensing device or transducer. An exemplary biosensor is BIAcore™, from Pharmacia Biosensor AB (Uppsala, Sweden; see Faigerstam L. G., Techniques in Protein Chemistry II, ed. J. J. Villafranca, Acad. Press, NY, 1991). BIAcore™ uses the optical phenomenon surface plasmon resonance (Kretschmann and Raether, Z. Naturforschung, Teil. A 23:2135, 1968) to monitor the interaction of two biological molecules.
(§2) The biosensor chips were coated with goat anti-human IgG₁ Fc, which was used to bind CD40/Fc (prepared as described in Example 1) to the chip. The different constructs of CD40-L were then added at increasing concentrations; the chip was regenerated between the different constructs by the addition of sodium hydroxide. Two separate experiments were performed. […] The resultant data were analyzed to determine the affinity and association rate constants of the different CD40-L constructs. […]
On the technique in general: In SPR one partner is held on a chip, and binding of the other changes the refractive index at the surface.

Assay [2] deals with T1, CD40/Fc fusion protein. Description: biosensor (BIAcore), CD40/Fc captured on goat anti-human IgG1 Fc; equilibrium binding curve, left panel. Here is the method: as §1, §2

T1 sequence (P25942 other isoform, or with tags, fused parts or gaps limits assumed): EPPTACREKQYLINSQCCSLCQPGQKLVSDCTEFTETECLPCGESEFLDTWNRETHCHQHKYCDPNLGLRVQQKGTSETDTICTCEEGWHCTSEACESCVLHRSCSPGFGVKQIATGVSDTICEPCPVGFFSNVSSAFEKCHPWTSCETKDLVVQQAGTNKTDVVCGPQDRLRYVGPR

B1: Dimeric murine CD40-L (Fc fusion, not shown: a dimerising Fc or GST)
chain (part 1 of 2): DYKDDDDK
chain (part 2 of 2): GGGGSGGGGSGGGGSSSHRRLDKVEEEVNLHEDFVFIKKLKRCNKGEGSLSLLNCEEMRRQFEDLVKDITLNKEEKKENSFEMQRGDEDPQIAAHVVSEANSNAASVLQWAKKGYYTMKSNLVMLENGKQLTVKREGLYYVYTQVTFCSNREPSSQRPFIVGLWLKPSSGSERILLKAANTHSSSQLCEQQSVHLGGVFELQAGASVFVNVTEASQVIHRVGFSSFGLLKL
notes: also called Murine Dimer
Take B1: in the assay with CD40/Fc fusion protein [1], the “Site 1 (mol/mol CD40/Fc)” value amounted to 0.05 mol/mol CD40/Fc and the “Site2 (mol/mol CD40/Fc)” value was 0.14 mol/mol CD40/Fc.

B2: Trimeric human CD40-L (ligand)
chain: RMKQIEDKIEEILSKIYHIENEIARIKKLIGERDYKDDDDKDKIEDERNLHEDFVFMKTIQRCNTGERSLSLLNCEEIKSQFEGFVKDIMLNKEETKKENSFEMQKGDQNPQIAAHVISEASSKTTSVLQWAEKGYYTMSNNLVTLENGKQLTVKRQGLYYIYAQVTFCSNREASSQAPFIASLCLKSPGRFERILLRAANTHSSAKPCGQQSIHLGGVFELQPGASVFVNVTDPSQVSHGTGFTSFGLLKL
notes: also called trimeric CD40-L; CD40-L trimer
Consider B2, for which the “EC50 (read off the curve)” value with CD40/Fc fusion protein [2] was about 10 nM.

Values taken from patent publication US20030144182A1 (IMMUNEX, published 2003).
